Results from the supplement of paper PMC9170038.

Test system: MS2 coat protein
Experiment: apparent KD of MS2 coat protein; higher = weaker reporter binding
Conditions: Eterna round: R107
Experimental: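 RNA-MaP round R107: designed RNA switches with theophylline, tryptophan, arginine or FMN aptamers are transcribed on-chip within common flanks. They are titrated with SNAP-549-labelled MS2 coat protein in RNA-MaP buffer (100 mM Tris pH 7.5, 80 mM KCl, 4 mM MgCl2), without ligand or with the indicated ligand. Median apparent KD per design.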

[1] = input ligand: theophylline 20 uM
[2] = input ligand: tryptophan 2.4 mM
[3] = input ligand: theophylline 2 mM

Sequence	apparent KD of MS2 coat protein (input ligand: arginine 13.2 mM) [nM]	apparent KD of MS2 coat protein [1] [nM]	apparent KD of MS2 coat protein [2] [nM]	apparent KD of MS2 coat protein (input ligand: none) [nM]	apparent KD of MS2 coat protein [3] [nM]
UCGUGUAUAUCGGAUACCAGUGAGAAGGAUACAUGAGGAUCACCCAUGUGAGUUGAUGUACACCCUUGGCAGCUGUAUAUAUCUA [.plullin]	36	62.7	47.9	–	–
UGAAAGUAGGGAAGGAGCGCUACAACAUGAGGAUCACCCAUGUUAUGAGGAUCACCCGUGUGGCAGGUAGGUCGCCCAAAACAUG [#13 Same State - Arginine B]	40.6	46.7	31.9	43.9	35.6
AGUCUGGACUCGGCCGCCACUCGUGAUGCUUUGGCACAUGAGGAUCACCCAUGUGGUCGGCCUUAGAGGACCGGGAGUACCAGCU [Zaraoned]	38.6	65.9	–	–	61.3
UAUAUAGAAGGAUGUCAUAUAGAUGCAGAAGGAGCGUAGGAAACUACAGGUAGGUCGCUGAGGUACAUGAGGAUCACCCAUGUAG [SSArg A #17 Slice of Pi]	32.6	54	26.7	33.1	45.5
CCUAUGCAGUCGGCCGCCACUGAAAUAAAUUAUAUUACCUCAGAAACAUGAGGAUCACCCAUGUACAGGACCGGGACUGUAUAGG [Ex Tryptophan B 15]	26	44.2	56.3	35.3	26.2
AAAAUAAAUAAAACACGUAACAUGAAGGAUACCAGACCGGAAACGGUCCCUUGGCAGCCUCUACAUGAGGAUCACCCAUGUCGUG [Mat - Same State Theophlline A - Mod of Eli - D18]	110	141	258	–	–
UGUAUGUGAUCUGAUACCAGCGAUGAUAACCUGAGGAUCACCCUGGUAAGGCGAAAGCCUCGCCCUUGGCAGCAGAUCGCAUACU	407	273	800	583	24
CAUGGGUGGGUGCUGCCACCCAUUGGUGAUACCAGCAUCGAAAGAUGCCCUUGGCAGCACCAACAUGAGGAUCACCCAUGUAAUA [(M)'-(T)'-(M)''-(T1)-(T2)-(M1)-(M2)_Design4]	58.6	145	67.8	–	–
UGUAUGUGAUCUGAUACCAGAGUGAAUAAACGCGAAAGCGCCUGAGGAUCACCCUGGUAACUCCCUUGGCAGCAGAUCGCAUACU	119	789	1390	569	74.5
CGCCACAUGAGGAUCACCCAUGUCUUGGCGCGAGGACCGGUACGGCCGCCACUCGCGUUUCAGUGAGCGCAUGCGUCCUUGGUAU [Exclusion Tryp A GF10]	16.8	27	–	–	20.3
AAUUUAAACGGAAGGAGCGUCACUUAAUAUCAACAUGAGGAUCACCCAUGUACGGGUUGUAGACAGGUAGGUCGCCGUCAUUUGA [#15 Same State - Arginine B]	49.4	74.5	53.5	47.9	64.5
AACAUGAGGAUCACCCAUGUUUGCUAUGAAGGAGCGUCGGAAAUGACAGGUAGGUCGCAUGGUAGACCGAGUAUUAUCUGUAUGG [EAA NP+V+V2 #11]	14.9	19.5	12.1	9.74	10.7
AGAUGACACAGUGGAUAGCAAGAUGCCGAUACCAGCUAGGAAACUAGCCCUUGGCAGCGGUACAUGAGGAUCACCCAUGUAUCCU [EThA NP+V+V2 #10]	12.4	15.1	13.4	–	–
AUCAUCAGUUCGGCCGCCACUGUUUGGCACAGUUGUAUCGUACAUGAGGAUCACCCAUGUCACCACAGGACCGGGAACGCCGUCG [theeternabot_exclusion_MS2_Trp_B_1]	16.3	21.6	–	–	18.3
GCUGCUUUGGGAAGGAGCGCUGUGGUAGUGUGGCGGACAUGAGGAUCACCCAUGUGCCUGCAGCAGGUAGGUCGCUUAGGGCAGC [EAP NP+V+V2 #16]	37.6	37.9	36.5	24.5	40.1
AAUAUAAUAUAAAUAAUAAUAAUAUCUGAUACCAGACUCUCAUGUGUCCCUUGGCAGCAGUAACAUGAGGAUCACCCAUGUAAUA [JR_Nu_SSTheophyA_Sub027]	33	46.7	52	62.7	16.2
AGAUUACAUGUUUUAAUACGGAAAACUGAUACCAGUGUAUCUAUUCACCCUUGGCAGCAGCAACAUGAGGAUCACCCAUGUAUUA [JR_SSTheophyA_Sub016]	17.9	21.5	20	–	–
ACCGCAUCCGUAUAGGAUGCGGCCCAUGAAGGAGCGUGGGAAACCACAGGUAGGUCGCAUGGAUUACAUGAGGAUCACCCAUGUG [Skyfall]	104	378	408	400	706
CCAUGCAGGUCGGCCGCCACUACACACAUGAGGAUCACCCAUGUAGUUACUGGGUGAAGUGGCAGUAGGACCGGGACCUGCAUAU [Brourdmod11]	94.5	330	1020	284	504

Sequence	apparent KD of MS2 coat protein (input ligand: arginine 13.2 mM) [nM]	apparent KD of MS2 coat protein [1] [nM]	apparent KD of MS2 coat protein [2] [nM]	apparent KD of MS2 coat protein (input ligand: none) [nM]	apparent KD of MS2 coat protein [3] [nM]
CAUGGGUGGUAUCACCCAUCCAUAGGUGAUACCAGCAUCGAAAGAUGCCCUUGGCAGCACCAACAUGAGGAUCACCCAUGUAAUA [(M)'-(T)'-(M)''-(T1)-(T2)-(M1)-(M2)_Design2]	48.1	189	354	–	–
ACACGAAGCUGAAGGAGCGUGGUAUAAAUUUUUACAUGAGGAUCACCCAUGUUUCAUCAAUCACAGGUAGGUCGCAGAUGCGUGA [JR_SSArginiB_Sub014]	19.6	18.6	15.9	14.1	20.2
GCUAGGUCUACGGCCGCCACUAGACGUGGGUAAGACAUGAGGAUCACCCAUGUACUACGGGCGAUUAGGACCGGGUAGACCUAGC [SSTB NP+V+V2 #16 Same Structure]	50.5	527	66.9	309	646
AAAGAUUCCUGAACGCCGCAUACCGAUGAUACCAGCCAACGGAAAGGCCCUUGGCAGCAUUAAACAUGAGGAUCACCCAUGUCUA [theeternabot_exclusion_MS2_Theo_A_43]	11.4	15	12.1	–	–
CUAUAAGUACCGGUCCUCAGAUCCUCAUGACGAGGACCGGUACGGCCGCCACUCGAAACAUGAGGAUCACCCAUGUAAUAAUAAU [Brourdmod06]	15	38.5	–	–	24.5
ACAUGAGGAUCACCCAUGUAAUAAGGAGAAGGAGCGCGUAAGGACGCAGGUAGGUCGCUCGUGGUCCGGCCGCAAGGCCGGACCA [#1 Same State - Arginine A Attempt #8 (HarryS)]	4.83	15.4	9.31	11.2	8.04
GCACCAGGUACGGAUACCAGCUGCCACAGUUACAUGAGGAUCACCCAUGUGAAAACGUGUAGCCCUUGGCAGCUGUACCUGGUGC [SSThB NP+V+V2 #8 Same Structure]	198	186	398	459	14.6
UUACAACUAAUGGAUACCAGCCGCGUGCUAGUGGUAGCAUACAUGAGGAUCACCCAUGUCGGCCCUUGGCAGCCACGCCCAUGCU [theeternabot_exclusion_MS2_Theo_B_2]	13.7	21.7	14.2	–	–
AAUGAUGCGAUCUACAGUCGAGGAUUCGAUACCAGCAACGGGCGUUGCCCUUGGCAGCGAGCUACAUGAGGAUCACCCAUGUUAC [theeternabot_exclusion_MS2_Theo_A_45]	16.8	25.5	19.4	–	–
GUUUAAAGGUCGGCCGCCACUGUAGGAUGUGUUCUUUCACAUGAGGAUCACCCAUGUUGUUAUUAUAGGACCGGGAUUUUAGGAC [39MS split4]	25.8	33.1	–	–	27.4
AUGGACGGCGAUCUGGGUUUACCAGAUCGGCGAGGACCGGUACGGCCGCCACUCGUGUUUAUUUAACAUGAGGAUCACCCAUGUA [SSTA #2]	62.4	163	21.3	97.6	139
UUGGUACAUGAGGAUCACCCAUGUACUGAAGGAGCGGGACGAAUCUCAGGUAGGUCGCAGACAUGAGGAUCACCCAUGUAUGGCU [Exclusion Arginine A GF 17]	10.2	14.6	12.3	12.7	13.1
AUACCUAAUGAGUCGUGUAACUUUUCAGAUACCAGACUUUUCGUUGUCCCUUGGCAGCUGUUUUACAUGAGGAUCACCCAUGUUG [JR_ExcTheophyA_Sub008]	14.9	18.5	14.9	–	–
GCCAGUCAUAGCAGGGCAAAUAUACUCGAAGGAGCGUCAUAGUAGGCAGGUAGGUCGCGAGACAUGAGGAUCACCCAUGUAGAGA [fffmullin]	30.2	59.8	32.8	47.4	48.3
UAGACGGCCGGAAGGAGCGGUACAUGAGGAUCACCCAUGUAUCCCUGGGCAUCCGUAGUGUGCCAGGUAGGUCGCCGGUUGCGGG [XArg-B21]	15.3	25.2	15.9	15.5	18.2
UAUCCACAUGAGGAUCACCCAUGUUAGGAAGGAGCGGUGAGUGCACCAGGUAGGUCGCCUAGCUGAGGACUGUCGGUGGAUUCGU [Exclusion - Arginine A (Freestyle 20)]	39.7	67.3	47.7	88	57.1
ACAUGAGGAUCACCCAUGUCAAGGCACGAUACCAGCUGAUCCGGUGGCCCUUGGCAGCGUCACGUUUGGUCCCGCGGAUGACACG [p'pmullin]	32.1	139	106	–	–
CGAAAGCACAUGGGUUGCUUUCGACUGGAAGGAGCGAGCGAAAGCUCAGGUAGGUCGCCAGAAACAUGAGGAUCACCCAUGUAAU [(A)''-(M)'-(A)'(Arg1)-(Arg2)-(M1)-(M2)_Design10]	21.6	27.4	22.4	18.3	21.3
AGUGUUGUAACUGAUACCAGACCUUUGCUUAUACAUGAGGAUCACCCAUGUAAAAUGGCGGUCCCUUGGCAGCAGAGAAGACGCA [#10 Same State - Theophylline B]	41.5	27	41.9	–	–
